Assay results from PMC11617674, “The activity of the ribonucleotide monophosphatase UmpH is controlled by interaction with the GlnK signaling protein in Escherichia coli” (The Journal of Biological Chemistry, 2024).

Columns and labels:
[1] = target: UmpH (ribonucleotide monophosphatase), untagged recombinant (E. coli) (UniProt P0AF24)
[2] = target: UmpH (ribonucleotide monophosphatase), untagged recombinant (E. coli) (UniProt P0AF24); remark: listed apart in the source
[3] = target: His-GlnK (E. coli PII signaling protein GlnK, N-terminal His tag) (E. coli) (UniProt P0AC55); test: BLI; His-GlnK on Ni-NTA biosensor, UmpH as analyte; 20 mM Hepes pH 7.4, 50 mM KCl, 5 mM MgCl2, 2 mM DTT, 2 mM NAG; 1 mM ADP; 1:1 (GlnK trimer:UmpH monomer) model
Chain of His-GlnK (E. coli PII signaling protein GlnK, N-terminal His tag) (E. coli) (P0AC55 whole entry): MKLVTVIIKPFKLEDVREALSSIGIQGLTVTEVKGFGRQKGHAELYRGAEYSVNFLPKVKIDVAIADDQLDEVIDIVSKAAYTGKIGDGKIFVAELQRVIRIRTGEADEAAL

[4] = target: His-GlnK (E. coli PII signaling protein GlnK, N-terminal His tag) (E. coli) (UniProt P0AC55); test: BLI; His-GlnK on Ni-NTA biosensor, UmpH as analyte; 20 mM Hepes pH 7.4, 50 mM KCl, 5 mM MgCl2, 2 mM DTT, 2 mM NAG; no effector; 1:1 (GlnK trimer:UmpH monomer) model
[5] = target: His-GlnK (E. coli PII signaling protein GlnK, N-terminal His tag) (E. coli) (UniProt P0AC55); test: BLI; His-GlnK on Ni-NTA biosensor, UmpH as analyte; 20 mM Hepes pH 7.4, 50 mM KCl, 5 mM MgCl2, 2 mM DTT, 2 mM NAG; 1 mM ATP; 1:1 (GlnK trimer:UmpH monomer) model

Chain of UmpH (ribonucleotide monophosphatase), untagged recombinant (E. coli) (P0AF24 whole entry): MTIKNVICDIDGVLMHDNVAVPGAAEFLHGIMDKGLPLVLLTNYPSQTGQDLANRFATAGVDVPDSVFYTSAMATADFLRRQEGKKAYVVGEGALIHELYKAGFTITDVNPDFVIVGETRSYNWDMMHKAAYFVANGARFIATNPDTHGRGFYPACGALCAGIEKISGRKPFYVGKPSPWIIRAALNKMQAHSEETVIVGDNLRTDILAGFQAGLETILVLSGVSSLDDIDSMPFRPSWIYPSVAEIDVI

Row | inhibition of UmpH phosphatase activity (0.5 mM UMP, 0.1 mM ADP, 0.56 μM UmpH) against increasing GlnK trimer up to 2 μM [1] | UmpH Vmax (phosphate release from UMP), decrease in the presence of 2 μM GlnK trimer, 0.56 μM UmpH monomer, no GlnK effectors [2] | UmpH catalytic efficiency (Vmax/KM) for UMP, decrease in the presence of 2 μM GlnK trimer, 0.56 μM UmpH monomer, no GlnK effectors [2] | Kd [3] | Kd [4] | Kd [5] | Substance
1 | 50% | 30% | 68% | – | – | – | His-GlnK (E. coli PII signaling protein GlnK, N-terminal His tag) (from UniProt P0AC55 1-112) (natural protein)
2 | – | – | – | 7.8 nM | 50.6 nM | 37.3 nM | UmpH (ribonucleotide monophosphatase), untagged recombinant (from UniProt P0AF24 1-250) (enzyme)
